Paper PMC5714204

Key:
Assay in all cases: fluorescence polarization
[1] = molecular target: T1, RNase R ΔHTH-K (Escherichia coli BL21(DE3), UniProt P21499 87-725)
T1 sequence: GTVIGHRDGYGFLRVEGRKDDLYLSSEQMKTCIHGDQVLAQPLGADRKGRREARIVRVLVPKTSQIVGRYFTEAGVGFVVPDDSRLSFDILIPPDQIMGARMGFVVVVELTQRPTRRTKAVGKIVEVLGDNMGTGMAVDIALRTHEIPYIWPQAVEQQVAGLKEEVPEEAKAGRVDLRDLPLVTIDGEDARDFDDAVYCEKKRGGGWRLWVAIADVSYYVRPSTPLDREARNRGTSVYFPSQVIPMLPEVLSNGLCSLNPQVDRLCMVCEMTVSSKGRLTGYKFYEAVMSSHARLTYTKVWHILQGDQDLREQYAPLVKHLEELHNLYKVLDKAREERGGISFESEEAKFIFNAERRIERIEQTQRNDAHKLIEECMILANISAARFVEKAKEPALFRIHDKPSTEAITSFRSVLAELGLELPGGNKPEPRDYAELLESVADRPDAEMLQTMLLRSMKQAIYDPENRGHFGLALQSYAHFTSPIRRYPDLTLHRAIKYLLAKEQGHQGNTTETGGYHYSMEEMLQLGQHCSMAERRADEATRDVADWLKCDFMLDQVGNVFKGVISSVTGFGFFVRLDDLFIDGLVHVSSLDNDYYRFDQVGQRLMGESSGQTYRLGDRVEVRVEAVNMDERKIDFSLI

[2] = molecular target: T2, RNase R (full-length) (Escherichia coli BL21(DE3), UniProt P21499 1-813)
T2 sequence: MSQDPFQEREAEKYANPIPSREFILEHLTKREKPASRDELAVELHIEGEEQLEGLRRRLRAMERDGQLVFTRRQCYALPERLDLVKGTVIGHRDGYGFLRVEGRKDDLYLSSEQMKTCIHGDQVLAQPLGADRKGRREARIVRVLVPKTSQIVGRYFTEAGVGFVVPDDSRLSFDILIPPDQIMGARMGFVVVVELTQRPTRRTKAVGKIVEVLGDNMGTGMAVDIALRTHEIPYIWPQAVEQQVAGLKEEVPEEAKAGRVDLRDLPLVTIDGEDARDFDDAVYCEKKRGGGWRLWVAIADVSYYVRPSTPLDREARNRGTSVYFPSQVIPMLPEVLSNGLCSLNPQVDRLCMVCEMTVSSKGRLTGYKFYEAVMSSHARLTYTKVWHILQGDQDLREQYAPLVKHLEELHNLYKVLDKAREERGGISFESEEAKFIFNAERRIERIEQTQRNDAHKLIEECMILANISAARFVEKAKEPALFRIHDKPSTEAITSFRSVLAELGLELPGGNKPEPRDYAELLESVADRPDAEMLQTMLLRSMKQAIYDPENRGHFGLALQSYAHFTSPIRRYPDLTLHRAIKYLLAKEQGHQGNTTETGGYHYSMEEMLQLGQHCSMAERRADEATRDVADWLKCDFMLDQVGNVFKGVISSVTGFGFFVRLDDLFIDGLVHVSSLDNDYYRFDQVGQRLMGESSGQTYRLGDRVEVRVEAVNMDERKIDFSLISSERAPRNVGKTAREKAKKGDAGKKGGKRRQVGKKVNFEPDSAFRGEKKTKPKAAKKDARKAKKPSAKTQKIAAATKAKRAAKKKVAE

[3] = molecular target: T3, RNase R Δ3H (Escherichia coli BL21(DE3), UniProt P21499 1-813, del487-545)
T3 sequence: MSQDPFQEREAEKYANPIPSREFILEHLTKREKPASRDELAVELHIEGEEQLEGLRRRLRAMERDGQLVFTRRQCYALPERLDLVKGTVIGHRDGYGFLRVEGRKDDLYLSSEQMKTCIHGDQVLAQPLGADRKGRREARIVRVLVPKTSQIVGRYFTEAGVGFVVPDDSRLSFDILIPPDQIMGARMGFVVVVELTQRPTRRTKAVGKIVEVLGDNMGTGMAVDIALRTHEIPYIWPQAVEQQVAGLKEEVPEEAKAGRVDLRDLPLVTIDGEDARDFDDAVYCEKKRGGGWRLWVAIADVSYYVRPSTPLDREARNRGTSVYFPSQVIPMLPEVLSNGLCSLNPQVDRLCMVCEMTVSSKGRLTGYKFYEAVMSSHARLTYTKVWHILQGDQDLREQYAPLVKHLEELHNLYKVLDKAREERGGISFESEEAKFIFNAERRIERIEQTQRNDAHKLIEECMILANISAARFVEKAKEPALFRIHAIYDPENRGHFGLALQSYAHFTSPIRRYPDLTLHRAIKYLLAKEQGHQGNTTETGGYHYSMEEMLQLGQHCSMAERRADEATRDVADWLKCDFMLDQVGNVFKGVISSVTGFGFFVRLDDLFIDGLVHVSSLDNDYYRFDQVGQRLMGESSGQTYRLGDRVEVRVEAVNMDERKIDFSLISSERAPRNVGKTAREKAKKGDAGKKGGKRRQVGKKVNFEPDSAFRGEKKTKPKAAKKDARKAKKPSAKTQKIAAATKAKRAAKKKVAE

[4] = molecular target: T4, RNase R 1H (Escherichia coli BL21(DE3), UniProt P21499 1-523+=AQPTGFLDSRIRRFQS+545-813, internal_change)
T4 sequence: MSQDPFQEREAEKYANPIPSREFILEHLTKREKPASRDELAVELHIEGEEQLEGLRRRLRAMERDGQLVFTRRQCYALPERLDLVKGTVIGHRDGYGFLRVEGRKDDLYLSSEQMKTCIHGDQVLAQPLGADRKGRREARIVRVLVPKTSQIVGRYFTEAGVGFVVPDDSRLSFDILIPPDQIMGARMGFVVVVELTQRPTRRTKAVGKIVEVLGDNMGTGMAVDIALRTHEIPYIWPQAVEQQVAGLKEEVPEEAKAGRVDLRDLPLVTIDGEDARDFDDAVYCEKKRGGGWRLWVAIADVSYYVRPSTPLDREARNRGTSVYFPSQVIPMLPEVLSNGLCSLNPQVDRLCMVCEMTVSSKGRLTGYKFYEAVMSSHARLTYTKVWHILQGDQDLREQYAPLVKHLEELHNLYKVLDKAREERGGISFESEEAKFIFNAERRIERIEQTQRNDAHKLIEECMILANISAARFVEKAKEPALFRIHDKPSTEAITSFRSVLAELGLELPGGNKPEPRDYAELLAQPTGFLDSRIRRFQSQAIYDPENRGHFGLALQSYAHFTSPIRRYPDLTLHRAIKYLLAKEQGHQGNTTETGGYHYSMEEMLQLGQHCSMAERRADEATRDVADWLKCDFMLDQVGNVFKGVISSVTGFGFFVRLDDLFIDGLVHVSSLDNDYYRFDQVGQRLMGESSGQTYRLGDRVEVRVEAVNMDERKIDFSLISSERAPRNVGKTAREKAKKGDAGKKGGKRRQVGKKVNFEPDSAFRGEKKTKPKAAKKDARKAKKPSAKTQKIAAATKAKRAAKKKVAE

For AAAAAAAAAAAAAAAAAAAAAAAAAAAAAA (ssRNA) [Cy3-poly(A)30 ssRNA], the Kd [1] was 8.6 ± 1 nM, the Kd [2] was 11.2 ± 1.2 nM and the Kd [3] was 23.8 ± 2.6 nM. The Kd [4] was 9.9 ± 1 nM.
